B1: humanized L chain version “b” combined with a chimeric H chain (antibody, V domains shown)
VH: EVQLQQSGTNLVRPGALVKLSCKGSGFNIKDYYMHWVKQRPEQGLEWIGGNDPANGHSMYDPKFQGKASITADTSSNTAYLQLSSLTSEDTAVYFCARDSGYAMDYWGQGTSVTVSS
VL: DIQMTQSPSSLSASVGDRVTITCKASQDIKSFLSWYQQKPGKAPKLLIYYATSLADGVPSRFSGSGSGTDYTLTISSLQPEDFATYYCLQHGESPYTFGGGTKVEIK
notes: expressed in COS-7; also called ch-b
B2: H chain humanized version b/L chain humanized version b antibody (antibody, V domains shown)
VH: QVQLLESGAVLARPGTSVKISCKASGFNIKDYYMHWVKQRPGQGLEWIGGNDPANGHSMYDPKFQGRVTITADTSTNTAYMELSSLRSEDTAIYYCARDSGYAMDYWGQGTLVTVSS
VL: DIQMTQSPSSLSASVGDRVTITCKASQDIKSFLSWYQQKPGKAPKLLIYYATSLADGVPSRFSGSGSGTDYTLTISSLQPEDFATYYCLQHGESPYTFGGGTKVEIK
notes: also called b-b
B3: humanized H chain version “i” combined with the humanized L chain version “b1” (antibody, V domains shown)
VH: QVQLLESGAVLARPGTSVKISCKASGFNIKDYYMHWVKQRPGQGLEWIGGNDPANGHSMYDPKFQGRVTITADTSTSTVFMELSSLRSEDTAVYYCARDSGYAMDYWGQGTLVTVSS
VL: DIQMTQSPSSLSASVGDRVTITCKASQDIKSFLSWFQQKPGKSPKTLIYYATSLADGVPSRFSGSGSGTDYTLTISSLQPEDFATYYCLQHGESPYTFGGGTKVEIK
notes: expressed in COS-7; also called i-b1
B4: humanized L chain version “b1” combined with a chimeric H chain (antibody, V domains shown)
VH: EVQLQQSGTNLVRPGALVKLSCKGSGFNIKDYYMHWVKQRPEQGLEWIGGNDPANGHSMYDPKFQGKASITADTSSNTAYLQLSSLTSEDTAVYFCARDSGYAMDYWGQGTSVTVSS
VL: DIQMTQSPSSLSASVGDRVTITCKASQDIKSFLSWFQQKPGKSPKTLIYYATSLADGVPSRFSGSGSGTDYTLTISSLQPEDFATYYCLQHGESPYTFGGGTKVEIK
notes: expressed in COS-7; also called ch-b1
B5: H chain humanized version i/L chain humanized version b2 antibody (antibody, V domains shown)
VH: QVQLLESGAVLARPGTSVKISCKASGFNIKDYYMHWVKQRPGQGLEWIGGNDPANGHSMYDPKFQGRVTITADTSTSTVFMELSSLRSEDTAVYYCARDSGYAMDYWGQGTLVTVSS
VL: DIQMTQSPSSLSASVGDRVTITCKASQDIKSFLSWYQQKPEKAPKSLIYYATSLADGVPSRFSGSGSGTDYTLTISSLQPEDFATYYCLQHGESPYTFGGGTKVEIK
notes: also called i-b2
B6: humanized H chain version “b3” combined with the humanized L chain version “b” (antibody, V domains shown)
VH: QVQLLESGAVLARPGTSVKISCKASGFNIKDYYMHWVRQAPGQGLEWIGGNDPANGHSMYDPKFQGRVTITADTSTNTAYMELSSLRSEDTAIYYCARDSGYAMDYWGQGTLVTVSS
VL: DIQMTQSPSSLSASVGDRVTITCKASQDIKSFLSWYQQKPGKAPKLLIYYATSLADGVPSRFSGSGSGTDYTLTISSLQPEDFATYYCLQHGESPYTFGGGTKVEIK
notes: expressed in COS-7; also called b3-b
B7: humanized L chain version “a” combined with a chimeric H chain (antibody, V domains shown)
VH: EVQLQQSGTNLVRPGALVKLSCKGSGFNIKDYYMHWVKQRPEQGLEWIGGNDPANGHSMYDPKFQGKASITADTSSNTAYLQLSSLTSEDTAVYFCARDSGYAMDYWGQGTSVTVSS
VL: DIQMTQSPSSLSASVGDRVTITCKASQDIKSFLSWYQQKPGKAPKLLIYYATSLADGVPSRFSGSGSGTDFTLTISSLQPEDFATYYCLQHGESPYTFGGGTKVEIK
notes: expressed in COS-7
B8: humanized L chain version “b2” combined with a chimeric H chain (antibody, V domains shown)
VH: EVQLQQSGTNLVRPGALVKLSCKGSGFNIKDYYMHWVKQRPEQGLEWIGGNDPANGHSMYDPKFQGKASITADTSSNTAYLQLSSLTSEDTAVYFCARDSGYAMDYWGQGTSVTVSS
VL: DIQMTQSPSSLSASVGDRVTITCKASQDIKSFLSWYQQKPEKAPKSLIYYATSLADGVPSRFSGSGSGTDYTLTISSLQPEDFATYYCLQHGESPYTFGGGTKVEIK
notes: expressed in COS-7; also called ch-b2
B9: humanized H chain version “b” combined with the humanized L chain version “b2” (antibody, V domains shown)
VH: QVQLLESGAVLARPGTSVKISCKASGFNIKDYYMHWVKQRPGQGLEWIGGNDPANGHSMYDPKFQGRVTITADTSTNTAYMELSSLRSEDTAIYYCARDSGYAMDYWGQGTLVTVSS
VL: DIQMTQSPSSLSASVGDRVTITCKASQDIKSFLSWYQQKPEKAPKSLIYYATSLADGVPSRFSGSGSGTDYTLTISSLQPEDFATYYCLQHGESPYTFGGGTKVEIK
notes: expressed in COS-7; also called b-b2
B10: humanized L chain version “c” combined with a chimeric H chain (antibody, V domains shown)
VH: EVQLQQSGTNLVRPGALVKLSCKGSGFNIKDYYMHWVKQRPEQGLEWIGGNDPANGHSMYDPKFQGKASITADTSSNTAYLQLSSLTSEDTAVYFCARDSGYAMDYWGQGTSVTVSS
VL: DIQMTQSPSSLSASVGDRVTITCKASQDIKSFLSWYQQKPGKAPKLLIYYATSLADGVPSRFSGSGSGTDYTLTISSLQPEDIATYYCLQHGESPYTFGGGTKVEIK
notes: expressed in COS-7
B11: humanized H chain version “b” combined with the humanized L chain version “c” (antibody, V domains shown)
VH: QVQLLESGAVLARPGTSVKISCKASGFNIKDYYMHWVKQRPGQGLEWIGGNDPANGHSMYDPKFQGRVTITADTSTNTAYMELSSLRSEDTAIYYCARDSGYAMDYWGQGTLVTVSS
VL: DIQMTQSPSSLSASVGDRVTITCKASQDIKSFLSWYQQKPGKAPKLLIYYATSLADGVPSRFSGSGSGTDYTLTISSLQPEDIATYYCLQHGESPYTFGGGTKVEIK
notes: The construction of its expression plasmid is not described
B12: humanized H chain version “d3” combined with the humanized L chain version “b” (antibody, V domains shown)
VH: QVQLLESGAVLARPGTSVKISCKASGFNIKDYYMHWVRQAPGQGLEWIGGNDPANGHSMYDPKFQGRVTITADESTSTAYMELSSLRSEDSAVYFCARDSGYAMDYWGQGTLVTVSS
VL: DIQMTQSPSSLSASVGDRVTITCKASQDIKSFLSWYQQKPGKAPKLLIYYATSLADGVPSRFSGSGSGTDYTLTISSLQPEDFATYYCLQHGESPYTFGGGTKVEIK
notes: expressed in COS-7; also called d3-b
B13: H chain humanized version i/L chain humanized version b antibody (antibody, V domains shown)
VH: QVQLLESGAVLARPGTSVKISCKASGFNIKDYYMHWVKQRPGQGLEWIGGNDPANGHSMYDPKFQGRVTITADTSTSTVFMELSSLRSEDTAVYYCARDSGYAMDYWGQGTLVTVSS
VL: DIQMTQSPSSLSASVGDRVTITCKASQDIKSFLSWYQQKPGKAPKLLIYYATSLADGVPSRFSGSGSGTDYTLTISSLQPEDFATYYCLQHGESPYTFGGGTKVEIK
B14: humanized H chain version “j” combined with the humanized L chain version “b” (antibody, V domains shown)
VH: QVQLLESGAVLARPGTSVKISCKASGFNIKDYYMHWVKQRPGQGLEWIGGNDPANGHSMYDPKFQGRVTFTADTSANTAYMELRSLRSADTAVYYCARDSGYAMDYWGQGTLVTVSS
VL: DIQMTQSPSSLSASVGDRVTITCKASQDIKSFLSWYQQKPGKAPKLLIYYATSLADGVPSRFSGSGSGTDYTLTISSLQPEDFATYYCLQHGESPYTFGGGTKVEIK
notes: expressed in COS-7; also called j-b
B15: humanized H chain version “d” combined with the humanized L chain version “b” (antibody, V domains shown)
VH: QVQLLESGAVLARPGTSVKISCKASGFNIKDYYMHWVKQRPGQGLEWIGGNDPANGHSMYDPKFQGRVTITADESTSTAYMELSSLRSEDSAVYFCARDSGYAMDYWGQGTLVTVSS
VL: DIQMTQSPSSLSASVGDRVTITCKASQDIKSFLSWYQQKPGKAPKLLIYYATSLADGVPSRFSGSGSGTDYTLTISSLQPEDFATYYCLQHGESPYTFGGGTKVEIK
notes: expressed in COS-7; also called d-b
B16: humanized H chain version “b” combined with the humanized L chain version “a” (antibody, V domains shown)
VH: QVQLLESGAVLARPGTSVKISCKASGFNIKDYYMHWVKQRPGQGLEWIGGNDPANGHSMYDPKFQGRVTITADTSTNTAYMELSSLRSEDTAIYYCARDSGYAMDYWGQGTLVTVSS
VL: DIQMTQSPSSLSASVGDRVTITCKASQDIKSFLSWYQQKPGKAPKLLIYYATSLADGVPSRFSGSGSGTDFTLTISSLQPEDFATYYCLQHGESPYTFGGGTKVEIK
notes: expressed in COS-7; also called b-a
B17: humanized H chain version “g” combined with the humanized L chain version “b” (antibody, V domains shown)
VH: QVQLLESGAVLARPGTSVKISCKASGFNIKDYYMHWVKQRPGQGLEWIGGNDPANGHSMYDPKFQGKATLTADESSSTAYMQLSSLRSEDSAVYSCARDSGYAMDYWGQGTLVTVSS
VL: DIQMTQSPSSLSASVGDRVTITCKASQDIKSFLSWYQQKPGKAPKLLIYYATSLADGVPSRFSGSGSGTDYTLTISSLQPEDFATYYCLQHGESPYTFGGGTKVEIK
notes: expressed in COS-7; also called g-b
B18: humanized H chain version “a” combined with a chimeric L chain (antibody, V domains shown)
VH: QVQLLESGAVLARPGTSVKISCKASGFNIKDYYMHWVKQRPGQGLEWIGGNDPANGHSMYDPKFQGRAKLTAATSASIAYLEFSSLTNEDSAVYYCARDSGYAMDYWGQGTLVTVSS
VL: DIKMTQSPSSMYASLGERVTITCKASQDIKSFLSWYQQKPWKSPKTLIYYATSLADGVPSRFSGSGSGQDYSLTINNLESDDTATYYCLQHGESPYTFGGGTKLEIK
notes: expressed in COS-7
B19: humanized H chain version “b” combined with a chimeric L chain (antibody, V domains shown)
VH: QVQLLESGAVLARPGTSVKISCKASGFNIKDYYMHWVKQRPGQGLEWIGGNDPANGHSMYDPKFQGRVTITADTSTNTAYMELSSLRSEDTAIYYCARDSGYAMDYWGQGTLVTVSS
VL: DIKMTQSPSSMYASLGERVTITCKASQDIKSFLSWYQQKPWKSPKTLIYYATSLADGVPSRFSGSGSGQDYSLTINNLESDDTATYYCLQHGESPYTFGGGTKLEIK
notes: expressed in COS-7; also called b-ch
B20: humanized H chain version “d” combined with a chimeric L chain (antibody, V domains shown)
VH: QVQLLESGAVLARPGTSVKISCKASGFNIKDYYMHWVKQRPGQGLEWIGGNDPANGHSMYDPKFQGRVTITADESTSTAYMELSSLRSEDSAVYFCARDSGYAMDYWGQGTLVTVSS
VL: DIKMTQSPSSMYASLGERVTITCKASQDIKSFLSWYQQKPWKSPKTLIYYATSLADGVPSRFSGSGSGQDYSLTINNLESDDTATYYCLQHGESPYTFGGGTKLEIK
notes: expressed in COS-7; also called d-ch
B21: humanized H chain version “e” combined with a chimeric L chain (antibody, V domains shown)
VH: QVQLLESGAVLARPGTSVKISCKASGFNIKDYYMHWVKQRPGQGLEWIGGNDPANGHSMYDPKFQGRVSITADESTKIAYMELNSLRSEDTAVYFCARDSGYAMDYWGQGTLVTVSS
VL: DIKMTQSPSSMYASLGERVTITCKASQDIKSFLSWYQQKPWKSPKTLIYYATSLADGVPSRFSGSGSGQDYSLTINNLESDDTATYYCLQHGESPYTFGGGTKLEIK
notes: expressed in COS-7; also called e-ch

Results on 21 molecules are retold here after patent publication US20040180051A1 (published 2004).

This test addresses T1, human tissue factor (human TF) on human bladder carcinoma cells J82 (human, UniProt P13726 33-295).
T1 construct: whole, on cells; Target of the cell ELISA; also called the antigen
Description: cell ELISA on fixed J82 cells.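 Also: measures antigen binding in a cell ELISA on J82 cells grown one day in 96-well plates and fixed with 4% paraformaldehyde.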 For orientation: An ELISA detects its analyte on a solid surface through an enzyme-linked reagent.
As for B1, the binding result is “binds”.

With B2, the binding result was “binds”. Turning to B3, the binding result was “binds”. As for B4, the entry is “binds”; as for B5, “binds”; as for B6, “binds”. Consider B7, for which the binding result was “binds”.

For the molecule B8, the binding result is listed as “binds”. Take B9: the binding result is on record as “binds”. In the case of B10, the binding result is on record as “binds”. Consider B11, for which the binding result is recorded as “binds”.

For B12, the binding result is given as “binds”. B13: the binding result is reported as “binds”. B14: the binding result is given as “binds”. In the case of B15, the binding result is reported as “binds”. Turning to B16, the binding result is reported as “binds”.

As to B17, the binding result is “binds”. As for B18, the entry is “binds”. B19: the binding result is “binds”. As for B20, the binding result was “binds”. B21: the binding result was “binds”.
